Assay results as given in the supplement of paper PMC9112550, “Optimization of the antimicrobial peptide Bac7 by deep mutational scanning” (BMC Biology, 2022).

These sequences were tested on Escherichia coli TOP10 (assay: shrunken log2 fold change of peptide-encoding DNA abundance (4.5 h post-induction vs induction); higher = less antimicrobial activity (less host growth inhibition)). Settings: time post-induction: 4.5 h; library: site-saturation at positions 5, 18, 19, 20.
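Further: peptides expressed intracellularly from a pBAD plasmid library in pooled LB shake-flask culture, induced with 0.3% L-arabinose, DNA abundance read by NGS, three biological replicates, DESeq2 with apeglm shrinkage.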

Sequence | shrunken log2 fold change
RRIRNRPPRLPRPRPRPKKLPRP | -0.0729
RRIRLRPPRLPRPRPRPNQWPRP | -0.117
RRIRHRPPRLPRPRPRPIRQPRP | 0.0104
RRIRQRPPRLPRPRPRPHGVPRP | -0.226
RRIRGRPPRLPRPRPRPFSTPRP | -0.0796
RRIRDRPPRLPRPRPRPAYPPRP | 0.147
RRIRTRPPRLPRPRPRPSMMPRP | -0.0802
RRIRKRPPRLPRPRPRPPKHPRP | 0.723
RRIRERPPRLPRPRPRPYYKPRP | -0.231
RRIRTRPPRLPRPRPRPSKNPRP | -0.325
RRIRYRPPRLPRPRPRPLAGPRP | 0.0192
RRIRPRPPRLPRPRPRPASRPRP | 0.0846
RRIRRRPPRLPRPRPRPPCVPRP | 1.02
RRIRTRPPRLPRPRPRPWKGPRP | 0.143
RRIRARPPRLPRPRPRPDNVPRP | -0.059
RRIRNRPPRLPRPRPRPLLSPRP | 0.1
RRIRYRPPRLPRPRPRPHSMPRP | -0.0542
RRIRRRPPRLPRPRPRPWWQPRP | 0.0834
RRIRIRPPRLPRPRPRPIGGPRP | -0.0686
RRIRDRPPRLPRPRPRPWHKPRP | -0.11
RRIRKRPPRLPRPRPRPGALPRP | 0.656
RRIRTRPPRLPRPRPRPSDEPRP | -0.516
RRIRHRPPRLPRPRPRPSYKPRP | -0.0553
RRIRVRPPRLPRPRPRPDSEPRP | -0.105
RRIRWRPPRLPRPRPRPNIYPRP | -0.307

Sequence | shrunken log2 fold change
RRIRYRPPRLPRPRPRPFIQPRP | -0.126
RRIRGRPPRLPRPRPRPEWPPRP | 1.13
RRIRKRPPRLPRPRPRPIKCPRP | -0.29
RRIRWRPPRLPRPRPRPFVGPRP | -0.166
RRIRDRPPRLPRPRPRPYSLPRP | -0.017
RRIRERPPRLPRPRPRPRQAPRP | 0.0291
RRIRERPPRLPRPRPRPSKGPRP | -0.35
RRIRDRPPRLPRPRPRPFADPRP | -0.0225
RRIRYRPPRLPRPRPRPFMQPRP | -0.403
RRIRWRPPRLPRPRPRPSWDPRP | 0.251
RRIRKRPPRLPRPRPRPCYYPRP | -0.48
RRIRIRPPRLPRPRPRPTTEPRP | 0.086
RRIRYRPPRLPRPRPRPQMRPRP | -0.00174
RRIRLRPPRLPRPRPRPGKGPRP | -0.0192
RRIRLRPPRLPRPRPRPISWPRP | 0.0554
RRIRHRPPRLPRPRPRPEAGPRP | 0.264
RRIRVRPPRLPRPRPRPKWNPRP | -0.172
RRIRARPPRLPRPRPRPWRMPRP | 0.0537
RRIRSRPPRLPRPRPRPSTRPRP | -0.0999
RRIRMRPPRLPRPRPRPSDAPRP | 0.617
RRIRYRPPRLPRPRPRPCIEPRP | -0.0017
RRIRFRPPRLPRPRPRPVCKPRP | -0.139
RRIRKRPPRLPRPRPRPENVPRP | -0.00931
RRIRCRPPRLPRPRPRPGSYPRP | -0.525
RRIRNRPPRLPRPRPRPPKRPRP | 0.497

Sequence | shrunken log2 fold change
RRIRDRPPRLPRPRPRPELVPRP | 0.00724
RRIRGRPPRLPRPRPRPKWAPRP | 0.155
RRIRARPPRLPRPRPRPLGRPRP | 0.321
RRIRVRPPRLPRPRPRPCYIPRP | -0.281
RRIRMRPPRLPRPRPRPLYPPRP | -0.151
RRIRKRPPRLPRPRPRPFIDPRP | 0.0226
RRIRPRPPRLPRPRPRPHDSPRP | -0.134
RRIRQRPPRLPRPRPRPQNKPRP | -0.22
RRIRLRPPRLPRPRPRPDRWPRP | -0.0824
RRIRERPPRLPRPRPRPDYVPRP | -0.00136
RRIRPRPPRLPRPRPRPGHSPRP | -0.0921
RRIRQRPPRLPRPRPRPLWLPRP | 0.0736
RRIRFRPPRLPRPRPRPFNFPRP | -1.17
RRIRIRPPRLPRPRPRPKPNPRP | -0.105
RRIRMRPPRLPRPRPRPVNGPRP | -0.0577
RRIRERPPRLPRPRPRPDREPRP | -0.0729
RRIRIRPPRLPRPRPRPMMWPRP | -0.00731
RRIRCRPPRLPRPRPRPCELPRP | -0.146
RRIRCRPPRLPRPRPRPQDTPRP | -0.313
RRIRHRPPRLPRPRPRPPWIPRP | 0.0139
RRIRSRPPRLPRPRPRPTDCPRP | -0.0926
RRIRRRPPRLPRPRPRPEEIPRP | -0.0243
RRIRSRPPRLPRPRPRPDDNPRP | 0.00575
RRIRQRPPRLPRPRPRPSPSPRP | -0.144
RRIRNRPPRLPRPRPRPKYMPRP | -0.854
